To fix the notation:
B1: HDV Ribozyme (parent)
chain: GGCCGGCAUGGUCCCAGCCUCCUCGCUGGCGCCGGCUGGGCAACAUUCCGAGGGGACCGUCCCCUCGGUAAUGGCGAAUGGGACCCA

Variants of B1 are the subject of the series. Briefly: self-cleavage, relative activity (ratio to wild type); higher = more cleavage; co-transcriptional.
For the variant GGCCGGCAUGGUCCCAGCCUCCUCGCUGGCGACGGCUGGGCAACAUUCCGAGGGGACCGUCCCCUCGGUAAUGGCGAAUUGGACCCA [C32A G80U], the self-cleavage came out at 0.0472.
The result for GGCCGGCAUGGUCCCAGCCUCCUCGCUGGCGACGGCUGGGCAACAUUCCGAGGGGACCGUCCCCUCGGUAAUGGCGAAUAGGACCCA [C32A G80A] reads 0.183.
As to GGCCGGCAUGGUCCCAGCCUCCUCGCUGGCGACGGCUGGGCAACAUUCCGAGGGGACCGUCCCCUCGGUAAUGGCGAAUCGGACCCA [C32A G80C], the self-cleavage worked out at 0.161.
For the variant GGCCGGCAUGGUCCCAGCCUCCUCGCUGGCGACGGCUGGGCAACAUUCCGAGGGGACCGUCCCCUCGGUAAUAGCGAAUGGGACCCA [C32A G73A], the self-cleavage turned out to be 0.138.
Under GGCCGGCAUGGUCCCAGCCUCCUCGCUGGCGACGGCUGGGCAACAUUCCGAGGGGACCGUCCCCUCGGUAAUCGCGAAUGGGACCCA [C32A G73C] stands 0.0906; under GGCCGGCAUGGUCCCAGCCUCCUCGCUGGCGACGGCUGGGCAACAUUCCGAGGGGACCGUCCCCUCGGUAAUUGCGAAUGGGACCCA [C32A G73U], 0.0959.
For the variant GGCCGGCAUGGUCCCAGCCUCCUCGCUGGCGACGGCUGGGCAACAUUCCGAGGGGACCGUCCCCUGGGUAAUGGCGAAUGGGACCCA [C32A C66G], the self-cleavage stood at 0.213.
As to GGCCGGCAUGGUCCCAGCCUCCUCGCUGGCGACGGCUGGGCAACAUUCCGAGGGGACCGUCCCCUAGGUAAUGGCGAAUGGGACCCA [C32A C66A], the self-cleavage is 0.181.
Under GGCCGGCAUGGUCCCAGCCUCCUCGCUGGCGACGGCUCGGCAACAUUCCGAGGGGACCGUCCCCUCGGUAAUGGCGAAUGGGACCCA [C32A G38C] stands 0.0817; under GGCCGGCAUGGUCCCAGCCUCCUCGCUGGCGACGGCUAGGCAACAUUCCGAGGGGACCGUCCCCUCGGUAAUGGCGAAUGGGACCCA [C32A G38A], 0.0665.
The result for GGCCGGCAUGGUCCCAGCCUCCUCGCUGGCGACGGCUGGGCAACAUUCCGAGGGGACCGUCCCCUCGGUAAUGGCGAAUGGGACCAA [C32A C86A] reads 0.356; that for GGCCGGCAUGGUCCCAGCCUCCUCGCUGGCGACGGCUGGGCAACAUUCCGAGGGGACCGUCCCCUCGAUAAUGGCGAAUGGGACCCA [C32A G68A], 0.185; that for GGCCGGCAUGGUCCCAGCCUCCUCGCUGGCGACGGCUGGGCAACAUUCCGAGGGGACCGUCCCCUCGGUAAUGGGGAAUGGGACCCA [C32A C75G], 0.285.
Under GGCCGGCAUGGUCCCAGCCUCCUCGCUGGCGACGGCUGGGCAACAUUCCGAGGGGACCGUCCCCUCGGUAAUGGUGAAUGGGACCCA [C32A C75U] stands 0.0791.
For the variant GGCCGGCAUGGUCCCAGCCUCCUCGCUGGCGACGGCUGGGCAACAUUCCGAGGGGACCGUCCCCUCGGUAAUGGCGAAUGGGAGCCA [C32A C84G], the self-cleavage is 0.111.
In the case of GGCCGGCAUGGUCCCAGCCUCCUCGCUGGCGACGGCUGGGCAACAUUCCGAGGGGACCUUCCCCUCGGUAAUGGCGAAUGGGACCCA [C32A G59U], the self-cleavage came out at 0.095.
Under GGCCGGCAUGGUCCCAGCCUCCUCGCUGGCGACGGCUGGGCAACAUUCCGAGGGGACCGUCCCCUCGGUAAUGGCGAAUGGGUCCCA [C32A A83U] stands 0.
On to GGCCGGCAUGGUCCCAGCCUCCUCGCUGGCGACCGCUGGGCAACAUUCCGAGGGGACCGUCCCCUCGGUAAUGGCGAAUGGGACCCA [C32A G34C], for which the self-cleavage was 0.208.
Under GGCCGGCAUGGUCCCAGCCUCCUCGCUGGCGACUGCUGGGCAACAUUCCGAGGGGACCGUCCCCUCGGUAAUGGCGAAUGGGACCCA [C32A G34U] stands 0.0791; under GGCCGGCAUGGUCCCAGCCUCCUCGCUGGCGACAGCUGGGCAACAUUCCGAGGGGACCGUCCCCUCGGUAAUGGCGAAUGGGACCCA [C32A G34A], 0.032; under GGCCGGCAUGGUCCCAGCCUCCUCGCUGGCGACGGCUGGGCAACAUUCCGAGGGGACAGUCCCCUCGGUAAUGGCGAAUGGGACCCA [C32A C58A], 0.208.
With GGCCGGCAUGGUCCCAGCCUCCUCGCUGGCGACGGCUGGGCAACAUUCCGAGGGGACUGUCCCCUCGGUAAUGGCGAAUGGGACCCA [C32A C58U], the self-cleavage came out at 0.208.
Under GGCCGGCAUGGUCCCAGCCUCCUCGCUGGCGACGGCUGGGCAACAUUCCGAGGGGACGGUCCCCUCGGUAAUGGCGAAUGGGACCCA [C32A C58G] stands 0; under GGCCGGCAUGGUCCCAGCCUCCUCGCUGGCGACGGCUGGGCAACAUUCCGAGGGGACCGUCCCCUCGGUAAUGGCGAAUGGUACCCA [C32A G82U], 0.104.
The result for GGCCGGCAUGGUCCCAGCCUCCUCGCUGGCGACGGCUGGGCAACAUUCCGAGGGGACCGUCCCCUCGGUAAUGACGAAUGGGACCCA [C32A G74A] reads 0.148; that for GGCCGGCAUGGUCCCAGCCUCCUCGCUGGCGACGGCUGGGAAACAUUCCGAGGGGACCGUCCCCUCGGUAAUGGCGAAUGGGACCCA [C32A C41A], 0.089.
Take GGCCGGCAUGGUCCCAGCCUCCUCGCUGGCGACGGCUGGGGAACAUUCCGAGGGGACCGUCCCCUCGGUAAUGGCGAAUGGGACCCA [C32A C41G]: the self-cleavage stood at 0.
GGCCGGCAUGGUCCCAGCCUCCUCGCUGGCGACGGCUGGGCAACAUUCCGAGGGGACCGUCACCUCGGUAAUGGCGAAUGGGACCCA [C32A C62A]: the self-cleavage is 0.151.
The result for GGCCGGCAUGGUCCCAGCCUCCUCGCUGGCGACGGCUGGGCAACAUUCCGAGGGGACCGUCCCCUCGGUAAUGGCGAAUGGGACACA [C32A C85A] reads 0.341; that for GGCCGGCAUGGUCCCAGCCUCCUCGCUGGCGACGGCUGGGCAACAUUCCGAGGGGACCGUCCCCUCGGUAAUGGCGAAUGGGACGCA [C32A C85G], 0.252; that for GGCCGGCAUGGUCCCAGCCUCCUCGCUGGCGACGGCUGGCCAACAUUCCGAGGGGACCGUCCCCUCGGUAAUGGCGAAUGGGACCCA [C32A G40C], 0.134.
As to GGCCGGCAUGGUCCCAGCCUCCUCGCUGGCGACGGCUGGUCAACAUUCCGAGGGGACCGUCCCCUCGGUAAUGGCGAAUGGGACCCA [C32A G40U], the self-cleavage is 0.22.
